The values that follow are results of earlier work, collected in publication PMC8329052.

As usually defined, the Kd is the equilibrium constant for the complex coming apart.

The data set addresses SARS-CoV-2 spike RBD RBD (SARS-CoV-2) (UniProt P0DTC2).

On to “SBP1 (ACE2 alpha1 helix 23-mer peptide) 21-43 (from UniProt Q9BYF1)”, for which the Kd is 47 nM.
